Series [1] has as its target Indicator molecule containing the cleavable sequence GPQGIFGQ with a terminal biotin group connected via a polyethylene glycol spacer/linker (intact).
For series [2], the target named is T1, Cyclised HNE substrate lacking the tyrosine residue (CQESIRLPGC attached to the scaffold).
T1 chain: CQESIRLPGC

Series [3] has as its target T2, Cyclised MOL488 peptide (YCQESIRLPGC attached to the scaffold derived from 1,3-dibromomethylbenzene).
T2 chain: YCQESIRLPGC

B1: MMP 1 (Enzo) (protein)
chain: FVLTEGNPRWEQTHLTYRIENYTPDLPRADVDHAIEKAFQLWSNVTPLTFTKVSEGQADIMISFVRGDHRDNSPFDGPGGNLAHAFQPGPGIGGDAHFDEDERWTNNFREYNLHRVAAHELGHSLGLSHSTDIGALMYPSYTFSGDVQLAQDDIDGIQAIYGRSQNPVQP
Protein B1 yielded a Reader value (lateral flow, CF1522 gold) at 0.5 µg/ml MMP in series [1] of 478 reader units.

B2: MMP 12 (Enzo) (protein)
chain: FREMPGGPVWRKHYITYRINNYTPDMNREDVDYAIRKAFQVWSNVTPLKFSKINTGMADILVVFARGAHGDFHAFDGKGGILAHAFGPGSGIGGDAHFDEDEFWTTHSGGTNLFLTAVHEIGHSLGLGHSSDPKAVMFPTYKYVDINTFRLSADDIRGIQSLYG
B2 showed a Reader value (lateral flow, CF1522 gold) at 0.5 µg/ml MMP in series [1] of 1250 reader units.

B3: Human Neutrophil elastase (Leeblo Solutions inc.) (protein)
chain: IVGGRRARPHAWPFMVSLQLRGGHFCGATLIAPNFVMSAAHCVANVNVRAVRVVLGAHNLSRREPTRQVFAVQRIFENGYDPVNLLNDIVILQLNGSATINANVQVAQLPAQGRRLGNGVQCLAMGWGLLGRNRGIASVLQELNVTVVTSLCRRSNVCTLVRGRQAGVCFGDSGSPLVCNGLIHGIASFVRGGCASGLYPDAFAPVAQFVNWIDSIIQ
In the case of B3, in series [2], the “HPLC analysis of elastase digestion” value was “a single cleavage product results from HNE activity on the peptide”; the “mass spectrometry of substrate and hydrolysed product” value was “the substrate is cleaved at a single site and that the substrate otherwise remains intact”. Besides, the “preparative enzymatic cleavage followed by HPLC and mass spectrometry” value in series [3] is reported as “A new product peak evolved over time”.

B4: MMP 11 (Enzo) (protein)
chain: FVLSGGRWEKTDLTYRILRFPWQLVQEQVRQTMAEALKVWSDVTPLTFTEVHEGRADIMIDFARYWHGDDLPFDGPGGILAHAFFPKTHREGDVHFDYDETWTIGDDQGTDLLQVAAHEFGHVLGLQHTTAAKALMSAFYTFRYPLSLSPDDCRGVQHLYGQPWPTVTSRTPA
On to B4, for which, in series [1], the Reader value (lateral flow, CF1522 gold) at 0.5 µg/ml MMP amounted to 280 reader units.

B5: MMP 7 (Enzo) (protein)
chain: YSLFPNSPKWTSKVVTYRIVSYTRDLPHITVDRLVSKALNMWGKEIPLHFRKVVWGTADIMIGFARGAHGDSYPFDGPGNTLAHAFAPGTGLGGDAHFDEDERWTDGSSLGINFLYAATHELGHSLGMGHSSDPNAVMYPTYGNGDPQNFKLSQDDIKGIQKLYGKRSNSRKK
In series [1], B5 returned a Reader value (lateral flow, CF1522 gold) at 0.5 µg/ml MMP of 373 reader units.

These data come from patent US20160238596.
